In patent publication US20210380994A1, “LACTOCOCCUS LACTIS EXPRESSION SYSTEM FOR DELIVERING PROTEINS EFFICACIOUS FOR THE TREATMENT OF EPITHELIAL BARRIER FUNCTION DISORDERS” (Second Genome, Inc., priority 2018, published 2021):

Experiments:
[1] = test system: Syrian Golden Hamsters, mucositis of the left buccal cheek pouch; test: radiation-induced oral mucositis model; format: in vivo, hamster; details: for Days <3 (animal days with a mucositis score <3) / Days ≥3 (animal days with a mucositis score ≥3): through Day 28; for % Days ≥3 (percent of animal days with a mucositis score ≥3): Vehicle 59.52%; for days of improvement in mucositis scores compared to the Vehicle control group: topical b.i.d.
Procedure: Forty-eight (48) male Syrian Golden Hamsters were used in the study.
Mucositis was induced by administering a single dose of radiation (40 Gy) directed to the left buccal cheek pouch at a rate of 2-2.5 Gy/min administered on Day 0. Radiation was generated with a 160 kilovolt potential (18.75-ma) source at a fecal distance of 10 cm, hardened with a 3.0 mm Al filtration system. Prior to irradiation, animals were anesthetized with an intraperitoneal injection of ketamine (160 mg/kg) and xylazine (8 mg/kg). The left buccal pouch was everted, fixed and isolated using a lead shield. Mucositis was evaluated clinically starting on Day 6 and continuing on alternate days until Day 28. The acute model has little systemic toxicity, resulting in few hamster deaths, thus permitting the use of smaller groups (n=7-8) for initial efficacy studies. It has abo been used to study specific mechanistic elements in the pathogenesis of mucositis.
The animals were divided into 6 treatment groups in which they were administered: Test agents (SG-11 or SG-11V5), a positive control (proprietary to Biomodels, LLC, Watertown, Mass.) or vehicle only were given by topical application to the left cheek pouch as detailed in Table 15 below.
On Day 0, morning dosing was performed at least 1 hour prior to irradiation and at least 1 hour post-irradiation (for PM dose). On Day 28, animals were euthanized and the left cheek pouch rom animals in Groups 1, and Groups 3-6 were excised, placed in a cryovial, snap frozen, and stored at −80° C. until shipment.
Starting on Day 6 and continuing every second day thereafter (Days 8, 10, 12, 14, 16, 18, 20, 22, 24, 26, 28) each animal was photographed and evaluated for mucositis scoring. For the evaluation of mucositis, the animals were anesthetized with an inhalation anesthetic and the left pouch everted. Mucositis was scored visually by comparison to a validated photographic scale (FIG. 37A), ranging from 0 for normal, to 5 for severe ulceration (clinical scoring). In descriptive terms, this scale is defined in Table 16.
A score of 1-2 is considered to represent a mild stage of the disease, whereas a score of […] is considered to indicate moderate to severe ulcerative mucositis. At the conclusion of the experiment, the photographs were randomly numbered and scored by two independent, trained observers who graded the images in blinded fashion using the above-described scale (blinded scoring). Hamsters reaching a mucositis severity score of 4 or higher received buprenorphine (0.5 mg/kg) SC twice a day for 48 hours or until score dropped below 4.
Statistical significance of observed differences was calculated using chi-squared analysis. The significance of differences observed between the control and treatment groups was evaluated by comparing the days with mucositis scores ≥3 and <3 between groups using chi-square analysis. The results of this analysis are shown in Table 17 far the entire study duration (through Day 28). Over the course of the study (Table 17), the percentage of animal days with a score of ≥3 in the Vehicle Group was 59.52%.

[2] = for precipitation: pH 5.2
Procedure: Effect of additives was also tested at the 3 different pH conditions: 150 mM NaCl (FIGS. 15A, 15D and 15G); 150 mM NaCl and 100 mM arginine (FIGS. 15B, 15E and 15H): and 150 mM NaCl and 0.5 M sorbitol (FIGS. 15C, 15F and 15I). Stability was analyzed by analytical SEC.
Effect of additives was also tested at the 3 different pH conditions: 150 mM NaCl (FIGS. 16A, 16D and 16G); 150 mM NaCl and 100 mM Arg (FIGS. 16B, 16E and 16H); and 150 mM NaCl and 0.5 M sorbitol (FIGS. 16C, 16F and 16I). Stability was analyzed by analytical SEC.

[3] = PTM of SG-11 versus SG-11V5 after storage, LC-MS/MS (Example 10); format: physicochemical
Procedure: For this analysis, PTMs of wildtype SG-11 (SEQ ID NO:7) and SG-11V5 (SEQ ID NO:19) were compared. In the first analysis (results provided in Table 10 below), the proteins were stored at a concentration of 1 mg/ml in Buffer 1 (50 mM NaPO4, pH 8, 150 mM NaCl, 10% glycerol) and stored for 2 weeks at either 4° C. or 40° C. The proteins were then treated with DTT and Iodoacetamide (IAA), followed by trypsin digestion. The digested samples were then analyzed by Waters ACQUITY UPLC couples to Xevo G2-XS QTOF mass spectrometer using a Protein BEH C18 column.
In a second analysis, the SG-11 (SEQ ID NO:7) and SG-11V5 (SEQ ID NO:19) proteins were each stored at 40° C. in a variety of buffers. The storage buffer used in this experiment was 100 mM NaPO4, pH7, with 10% sorbitol (+Sor) or without 10% sorbitol (−Sor) and with 10% glycerol (+Gly) or without 10% glycerol (−Gly) as indicated in Table 11. […] There were also differences in levels of N137 deamidation for the two proteins with the presence of at least glycerol and also the presence of both sorbitol and glycerol resulting in large decreases in N137 deamidation.

[4] = 0.75 mg/ml, 0.2 ml topical b.i.d., SG-11 Day 16, SG-11V5 Days 16 and 18, Vehicle 3.29
[5] = 1 mg/ml in Buffer 1 (50 mM NaPO4, pH 8, 150 mM NaCl, 10% glycerol), 2 weeks at 4° C.
[6] = 1 mg/ml in Buffer 1, 2 weeks at 4° C.
[7] = 1 mg/ml in Buffer 1, 2 weeks at 40° C.
[8] = 40° C., 100 mM NaPO4, pH7, + Sor − Gly
[9] = 40° C., 100 mM NaPO4, pH7, + Sor − Sly (so in the source)
[10] = 40° C., 100 mM NaPO4, pH7, − Sor − Gly (first column)
[11] = 40° C., 100 mM NaPO4, pH7, − Sor − Gly (third column as printed)

Row | Molecule | Days <3 (animal days with a mucositis score <3) ([1]; 0.75 mg/mL) | Days ≥3 (animal days with a mucositis score ≥3) ([1]; 0.75 mg/mL) | peak mean mucositis score (scale 0-5) [1, 4] | days of improvement in mucositis scores compared to the Vehicle control group [1] | precipitation [2] | Oxidation of M1 [3, 5] [%] | Deamidation of N137 [3, 6] [%] | Deamidation of N137 [3, 7] [%] | Oxidation of M1 [3, 7] [%] | Deamidation of N137 [3, 8] [%] | Oxidation of M1 [3, 8] [%] | Deamidation of N137 [3, 9] [%] | Oxidation of M1 [3, 9] [%] | Deamidation of N137 [3, 10] [%] | Oxidation of M1 [3, 10] [%] | Deamidation of N137 [3, 11] [%] | Oxidation of M1 [3, 11] [%] | also measured
1 | SG-11V5: variant of SEQ ID NO:7 with N53S, N83S, C147V, C151S (protein, Artificial variant of SG-11 (N53S, N83S, C147V, C151S)) MLEGEESVVYVGKKGVIASLDVETLDQSYYDETELKSYVDAEVEDYTAEHGKSAVKVESLKVEDGVAKLKMKYKTPEDYTAFSGIELYQGKVVASLAAGYVYDGEFARVEEGKVVGAATKQDIYSEDDLKVAIIRANTDVKVDGEIVYVSSQNVKLTGKDSVSIRDGYYLETGSVTASVDVTGQESVGTEQLSGTEQMEMTGEPVNADDTEQTEAAAGDGSFETDVYTFIVYK | 120 | 72 | 2.63 | multiple days | precipitated | 2.5 | 0.1 | 0.3 | 4.7 | 3.3 | 3.3 | 0.1 | 5.9 | 1.5 | 2.7 | 0.4 | 5.6 | Days <3 (animal days with a mucositis score <3) ([1]; 0.075 mg/mL): 106; Days ≥3 (animal days with a mucositis score ≥3) ([1]; 0.075 mg/mL): 86; peak mean mucositis score (scale 0-5) ([1]; 0.075 mg/ml topical b.i.d., Days 16 and 18): 3.00; % Days ≥3 (percent of animal days with a mucositis score ≥3) ([1]; 0.24 mg/mL): 53.65%; Days <3 (animal days with a mucositis score <3) ([1]; 0.24 mg/mL): 89; Days ≥3 (animal days with a mucositis score ≥3) ([1]; 0.24 mg/mL): 103; peak mean mucositis score (scale 0-5) ([1]; 0.24 mg/ml topical b.i.d., Days 16 and 18): 3.13; aggregation by analytical SEC ([2]; all conditions tested (pH 5.2, 7.0, 8.0; NaCl, arginine, sorbitol)): did not show a large amount of aggregation
2 | SG-11: Roseburia hominis protein comprising SEQ ID NO:3; tested as SEQ ID NO:5, SEQ ID NO:7 or FLAG-tagged SEQ ID NO:9 (protein, listed as Rosburia hominis) LEGEESVVYVGKKGVIASLDVETLDQSYYDETELKSYVDAEVEDYTAEHGKNAVKVESLKVEDGVAKLKMKYKTPEDYTAFNGIELYQGKVVASLAAGYVYDGEFARVEEGKVVGAATKQDIYSEDDLKVAIIRANTDVKVDGEICYVSCQNVKLTGKDSVSIRDGYYLETGSVTASVDVTGQESVGTEQLSGTEQMEMTGEPVNADDTEQTEAAAGDGSFETDVYTFIVYK | 96 | 96 | 3.25 | one day of improvement | precipitated | 8.9 | 1.0 | 0.9 | 12.5 | 2.6 | 12.1 | 2.5 | 27.8 | 0.9 | 20 | 3.0 | 38.6 | % Days ≥3 (percent of animal days with a mucositis score ≥3) ([1]; 0.75 mg/mL): 50.00%; aggregate formation by analytical SEC ([2]; 100 mM arginine at pH 7.0): greatly suppressed; Deamidation of N83 [3, 6]: 19.4%; Deamidation of N83 [3, 7]: 98.1%; Deamidation of N83 [3, 8]: 93.9%; Deamidation of N83 [3, 9]: 87.4%; Deamidation of N83 [3, 10]: 98.1%; Deamidation of N83 [3, 11]: 96.2%
